Experimental data taken from the supplement of paper PMC10567573.

B1: ZMYND11 (parent)
chain: YCSIKCQQEHWHAEHKRTCRRKR

Variants of: B1
Assay: protein stability index of a GFP-peptide fusion (GPS, HEK-293T) (PSI 1-6); higher = more stable
Conditions: c terminus: native
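Also: lentivirally expressed fusions sorted by FACS into six bins by GFP to DsRed ratio, PSI derived from sequencing read proportions per bin multiplied by bin number.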

Protein stability index, by site and new letter:
H10: E 2.18, I 1.92, K 2.12, A 1.95, C 1.54, V 1.11, S 2.36, R 3.33, P 2.1, Y 1.73, L 1.65, Q 2.45, D 1.96, T 2.07, N 3.26, M 1.4, G 2.81
H15: Y 2.01, M 1.6, Q 2.06, A 1.9, F 1.44, I 1.95, R 2.18, G 2.44, T 2.41, K 2.01, P 2.71, E 2.79, W 1.69, N 2.4, C 2.38, S 2.44, V 1.24, L 3.01
A13: G 2.62, T 1.98, Q 2.18, H 3.55, R 2.49, M 2.86, Y 2.1, F 1.83, D 3.16, C 2.15, W 1.32, N 2.78, P 1.9, E 2.16, L 1.61, K 2.65, I 2.58, V 2.89
K16: W 1.74, Q 2.34, A 2.53, F 1.95, R 1.76, C 2.74, M 2.16, H 2.84, V 2.39, N 2.11, L 2.42, I 2.18, E 2.46, S 2.56, D 2.43, Y 1.62, T 2.71, G 2.83
W11: M 3.58, L 2.97, V 3.48, F 2.76, Q 4.24, G 4.05, R 2.96, C 3.41, I 3.03, N 3.98, P 4.14, A 2.98, K 3.52, Y 3.32, S 3.2, T 4.7, H 3.45, D 4.43, E 4.32
C2: E 2.87, S 3.1, Y 2.85, P 2.2, Q 1.79, K 2.68, I 1.92, M 3.01, G 2.8, D 3.76, A 2.1, R 3.01, V 1.45, T 3.44, L 2.32, N 3.64, F 2.89, H 1.54
I4: A 2.76, K 2.37, G 1.84, C 2.67, W 1.89, Q 1.94, R 2.79, Y 3.92, E 3.25, H 2.62, D 2.6, M 1.83, L 2.14, V 2.51, S 2.51, P 2.38, F 2.66, N 2.9, T 2.08
K5: I 1.56, Q 3.2, Y 2.91, N 2.53, L 2.09, R 3.15, E 2.51, S 2.22, C 3.25, A 2.09, M 2.27, T 2.6, F 1.67, P 1.75, V 1.66, H 2.07, D 2.63, G 2.09
Y1: F 1.67, M 3.94, T 3.67, K 3.12, G 3.74, S 4.09, V 3.71, A 3.95, E 2.91, H 3.9, W 2.29, R 3.62, C 3.8, Q 3.91, D 2.58, L 2.86, I 3.23, N 3.79, P 3.46
Q8: D 2.7, F 2.84, R 2.2
